Data taken from patent publication US20150322137A1 (EVEC, published 2015).

How the values were obtained:
Test in all cases: cell-based or functional assay
[1] = biological target: T1, F protein of human metapneumovirus strain JPS02-76 (type B1), on infectious virus (human metapneumovirus, strain JPS02-76 …, UniProt Q6WB98 19-539)
[2] = biological target: T2, F protein of human metapneumovirus strain JPS05-21 (type B2), on infectious virus (human metapneumovirus, strain JPS05-21 …)
[3] = biological target: T3, F protein of human metapneumovirus strain JPS03-180 (type A1), on infectious virus (human metapneumovirus, strain JPS03-180 …)
[4] = biological target: T2, F protein of human metapneumovirus …; remark: listed apart in the source
[5] = biological target: T3, F protein of human metapneumovirus …; remark: listed apart in the source
[6] = biological target: T4, F protein of human metapneumovirus strain JPS03-178 (type A2), on infectious virus (human metapneumovirus, strain JPS03-178 …)
[7] = biological target: T1, F protein of human metapneumovirus …; remark: listed apart in the source
[8] = biological target: T2, F protein of human metapneumovirus …; remark: listed apart in the source
[9] = biological target: T3, F protein of human metapneumovirus …; remark: listed apart in the source
[10] = biological target: T4, F protein of human metapneumovirus …; remark: listed apart in the source
[11] = biological target: T1, F protein of human metapneumovirus …; remark: listed apart in the source
[12] = biological target: T2, F protein of human metapneumovirus …; remark: listed apart in the source
[13] = biological target: T3, F protein of human metapneumovirus …; remark: listed apart in the source
[14] = biological target: T4, F protein of human metapneumovirus …; remark: listed apart in the source
[15] = biological target: T1, F protein of human metapneumovirus …; remark: listed apart in the source

| Binder | IC50, neutralizing activity (hMPV infection of LLC-MK2 cells) [1] [µg/mL] | IC50, neutralizing activity (hMPV infection of LLC-MK2 cells) [2] [µg/mL] | IC50, neutralizing activity (hMPV infection of LLC-MK2 cells) [3] [µg/mL] | IC50, neutralizing activity (hMPV infection of LLC-MK2 cells; GraphPad Prism 6) [4] [µg/mL] | IC50, neutralizing activity (hMPV infection of LLC-MK2 cells; GraphPad Prism 6) [5] [µg/mL] | IC50, neutralizing activity (hMPV infection of LLC-MK2 cells; GraphPad Prism 6) [6] [µg/mL] | IC60, neutralizing activity (hMPV infection of LLC-MK2 cells; GraphPad Prism 6) [7] [µg/mL] | IC60, neutralizing activity (hMPV infection of LLC-MK2 cells; GraphPad Prism 6) [8] [µg/mL] | IC60, neutralizing activity (hMPV infection of LLC-MK2 cells; GraphPad Prism 6) [9] [µg/mL] | IC60, neutralizing activity (hMPV infection of LLC-MK2 cells; GraphPad Prism 6) [10] [µg/mL] | IC90, neutralizing activity (hMPV infection of LLC-MK2 cells; GraphPad Prism 6) [11] [µg/mL] | IC90, neutralizing activity (hMPV infection of LLC-MK2 cells; GraphPad Prism 6) [12] [µg/mL] | IC90, neutralizing activity (hMPV infection of LLC-MK2 cells; GraphPad Prism 6) [13] [µg/mL] | IC90, neutralizing activity (hMPV infection of LLC-MK2 cells; GraphPad Prism 6) [14] [µg/mL] | IC50, cell-to-cell spread inhibitory activity (LLC-MK2 cells stably expressing TMPRSS2) [15] [µg/mL] | IC90, cell-to-cell spread inhibitory activity (LLC-MK2 cells stably expressing TMPRSS2) [15] [µg/mL] |
| --- | --- | --- | --- | --- | --- | --- | --- | --- | --- | --- | --- | --- | --- | --- | --- | --- |
| EV046135 (antibody, human IgG1, lambda, V domains shown) VH: QEQLVESGGDLVKPGGSLRITCAASGFTLSGYALVWVRQAPGRGLEWIADITASSTYINYAASVKGRFTISRDNAQSSLFLQMSSLRADDTGVYFCARLPHLPGFFDLWGRGTLVSVSS VL: QSVLTQPPSVSGAPGQRVTISCTGNSSNIGAGYDVNWYQHLPGTAPKLLISVNTNRPSGVPDRFSGSMSGTSASLAITGLQAEDEADYYCQSYDRRLSGYVFGTGTKVTVLG | 0.37 | 0.22 | 0.35 | 0.213 | 0.348 | 0.0316 | 0.571 | 0.268 | 0.44 | 0.0471 | 1.44 | 0.748 | 1.24 | 0.277 | 0.0308 | 0.231 |
| EV046124 (antibody, human IgG1, lambda, V domains shown) VH: QVQLVQSGTELKKPGASVKVSCKASGYTFTDYSMHWLRQAPGESLEWMGWVNGGPLDTKYSPTFQDRVSFSRDVFATTAYMDLSSLGPEDTAVYYCARGWGITAYRGDAFDLWGQGTMVIVSS VL: SFVLTQPPSVSVAPGKSARITCGASNIESKSVHWYQQKPGQAPVVVVYDDDDRPSGIPERFSGSNSGNTATLIINRVEVGDEADYYCQVWDSTSDMYVFGAGTKVTVLG | 0.29 | 0.24 | 0.07 | 0.255 | 0.0767 | 0.0407 | 0.423 | 0.305 | 0.102 | 0.0539 | 0.952 | 0.677 | 0.365 | 0.188 | 0.0482 | 0.26 |
| EV046136 (antibody, human IgG1, kappa, V domains shown) VH: QVQLVQSGAEMKKPGASVKVSCKASGYTFTDYFIHWVRQAPGQGLEWMGWVNPNSGATNYAQKFQGRVTMTGDTSLSAAYVDLSRLSSDDSAVYYCARDRGLGISSTRNDAFDIWGQGTTVTVSS VL: DIQLTQSPSSLSASVGDRVTITCQPSQGIRNFLNWYQQKPGKAPNLLIYDASNLETGVASRFSGSGSGTHFTLTISSLQPEDIATYFCQQYHSLPLTFGGGTKVEIKR | 0.31 | 0.46 | 0.29 | 0.537 | 0.318 | 0.318 | 0.419 | 0.67 | 0.358 | 0.358 | 0.895 | 1.78 | 0.605 | 0.605 | 0.0522 | 0.212 |
